From the supplement of paper PMC7877785
± gives the uncertainty stated by the source.

Assay: self-splicing fitness, log relative to wild type (ln ratio); higher = more splicing; Tetrahymena group I intron in knt gene, E. coli kanamycin selection, DiMSum; sequences stand for … in CUCUCU…GGAGGGAAAAGUUAUCAGGCAUGCACCUGGUAGCUAGUCUUUAAACCAAUAGAUUGCAUCGGUUUAAAAGGCAAGACCGUCAAAUUGCGGGAAAGGGGUCAACAGCCGUUCAGUACCAAGUCUCAGGGGAAACUUUGAGAUGGCCUUGCAAAGGGUAUGGUAAUAAGCUGACGGACAUGGUCCUAACCACGCAGCCAAGUCCUAAGUCAACAGAUCUUCUGUUGAUAUGGAUGCAGUUCACAGACUAAAUGUCGGUCGGGGAAGAUGUAUUCUUCUCAUAAGAUAUAGUCGGACCUCUCCUUAAUGGGAGCUAGCGGAUGAAGUGAUGCAACACUGGAGCCGCUGGGAACUAAUUUGUAUGCGAAAGUAUAUUGAUUAGUUUUGGAGUACUCGUGGUCG
Method in brief: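 DiMSum derived fitness as the error-weighted combination of fold changes across replicates, kanamycin versus no kanamycin, normalised to wild type. E. coli BL21(DE3) held the library, which randomised all eight P1ex-region intron nucleotides within the knt kanamycin-resistance gene on pET-22b(+). Six replicate transformations grew overnight at 37°C or 30°C on LB agar with or without 25 μg/mL kanamycin, also containing 100 μg/mL carbenicillin, 50 μM IPTG and 0.2% rhamnose, and pooled colonies were amplicon-sequenced on an Illumina HiSeq 2500.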

Sequence | self-splicing fitness (ln) (30 °C) | self-splicing fitness (ln) (37 °C)
GAUCAGCAAUAUUACGGGCG | -0.25 ± 0.095 | -0.511 ± 0.13
GUCAAGCAAUAUUACGGCGA | -2.1 ± 0.14 | -0.0443 ± 0.12
UGACAGCAAUAUUACGCUCU | -0.946 ± 0.083 | -0.389 ± 0.093
UCUCAGCAAUAUUACGUUAG | -3.98 ± 0.4 | -2.34 ± 0.27
CCCCAGCAAUAUUACGAAAU | -3.82 ± 0.17 | -2.25 ± 0.18
UCCGAGCAAUAUUACGCGCA | -0.129 ± 0.15 | -0.252 ± 0.14
CGACAGCAAUAUUACGUGAC | -3.67 ± 0.24 | -2.61 ± 0.31
GCGUAGCAAUAUUACGGGAC | -2.1 ± 0.15 | -2.17 ± 0.2
AAACAGCAAUAUUACGCUAU | -1.87 ± 0.1 | -2.23 ± 0.16
CAGGAGCAAUAUUACGUAUG | -2.27 ± 0.082 | -1.5 ± 0.11
GGCGAGCAAUAUUACGGCUC | -1.83 ± 0.11 | -0.815 ± 0.21
UGAAAGCAAUAUUACGUGCA | 0.0492 ± 0.078 | 0.75 ± 0.098
GGCGAGCAAUAUUACGCGAU | -3.7 ± 0.26 | -1.62 ± 0.19
AAAAAGCAAUAUUACGACAG | -1.17 ± 0.066 | -0.774 ± 0.088
CCCCAGCAAUAUUACGGACA | -3.52 ± 0.14 | -2.53 ± 0.14
AUGAAGCAAUAUUACGGCCA | 0.439 ± 0.11 | 0.466 ± 0.18
GGAGAGCAAUAUUACGUUAU | -3.27 ± 0.23 | -2.98 ± 0.32
GACGAGCAAUAUUACGUGGG | -4.32 ± 0.36 | -3.12 ± 0.2
UGAAAGCAAUAUUACGCCGG | -0.876 ± 0.11 | -0.346 ± 0.15
CGUAAGCAAUAUUACGAUUC | -3 ± 0.13 | -2.52 ± 0.16
CGCCAGCAAUAUUACGAGUG | -2.41 ± 0.07 | -1.59 ± 0.11
CCGAAGCAAUAUUACGGACG | -0.955 ± 0.11 | 0.515 ± 0.12
CCCGAGCAAUAUUACGUGUC | -5.12 ± 0.38 | -2.8 ± 0.19
CUCUAGCAAUAUUACGGUGC | -2.62 ± 0.21 | –
UGGUAGCAAUAUUACGACGU | -0.945 ± 0.12 | -0.0819 ± 0.16
AUCCAGCAAUAUUACGAUCG | -2.6 ± 0.2 | -3.02 ± 0.37

Sequence | self-splicing fitness (ln) (30 °C) | self-splicing fitness (ln) (37 °C)
CCCUAGCAAUAUUACGCAUA | -3.33 ± 0.27 | -1.99 ± 0.2
GCGCAGCAAUAUUACGCCGG | -2.75 ± 0.25 | -1.57 ± 0.31
GUGGAGCAAUAUUACGUUAG | -3.94 ± 0.24 | -2.35 ± 0.2
UCGUAGCAAUAUUACGUUAU | -4.46 ± 0.42 | -2.64 ± 0.34
AAGUAGCAAUAUUACGGGGA | -2.42 ± 0.18 | -1.74 ± 0.17
GCAAAGCAAUAUUACGUAAG | -1.92 ± 0.1 | -0.569 ± 0.11
UUUAAGCAAUAUUACGACCU | -1.72 ± 0.21 | -1.3 ± 0.18
CCAAAGCAAUAUUACGCUAC | -2.17 ± 0.23 | -1.58 ± 0.27
UGUAAGCAAUAUUACGAAAG | -3.6 ± 0.25 | -2.75 ± 0.34
CCUCAGCAAUAUUACGCCUU | -3.95 ± 0.3 | -2.17 ± 0.22
GGUCAGCAAUAUUACGGAUU | -0.77 ± 0.079 | -0.499 ± 0.1
AUUUAGCAAUAUUACGAUCC | -0.5 ± 0.4 | -0.408 ± 0.23
UAUUAGCAAUAUUACGUACC | -3.37 ± 0.37 | -1.26 ± 0.35
UGCGAGCAAUAUUACGCGUA | -4.01 ± 0.32 | -1.6 ± 0.14
UAGCAGCAAUAUUACGUAGA | -2.62 ± 0.072 | -1.11 ± 0.079
CUGCAGCAAUAUUACGUACG | -0.548 ± 0.082 | 0.0422 ± 0.11
CUAAAGCAAUAUUACGUUGA | -4.09 ± 0.23 | -2.6 ± 0.29
CGAUAGCAAUAUUACGGUCG | -4.36 ± 0.29 | -3.39 ± 0.35
UAAAAGCAAUAUUACGACAC | -1.88 ± 0.15 | -0.594 ± 0.17
AGCAAGCAAUAUUACGCCCU | -2.12 ± 0.26 | -0.679 ± 0.36
ACAUAGCAAUAUUACGAGGA | – | -2.56 ± 0.29
GGAUAGCAAUAUUACGCGUU | -1.98 ± 0.42 | -2.06 ± 0.47
AAGCAGCAAUAUUACGCCAA | -2.31 ± 0.21 | -2.04 ± 0.21
UGCGAGCAAUAUUACGAUAU | – | -2.61 ± 0.36
GGAAAGCAAUAUUACGUAGA | -0.977 ± 0.1 | -1.4 ± 0.17
AUCCAGCAAUAUUACGUCCA | -1.22 ± 0.11 | -0.412 ± 0.12

Sequence | self-splicing fitness (ln) (30 °C) | self-splicing fitness (ln) (37 °C)
CGUGAGCAAUAUUACGUUCU | -2.74 ± 0.28 | -2.2 ± 0.27
CCGUAGCAAUAUUACGAACC | – | -2.06 ± 0.45
UUAGAGCAAUAUUACGAGCA | -2.27 ± 0.42 | -1.09 ± 0.32
UUAGAGCAAUAUUACGACUG | -1.13 ± 0.096 | 0.345 ± 0.14
UGCCAGCAAUAUUACGCUGC | -3.85 ± 0.31 | -2.47 ± 0.28
GCGAAGCAAUAUUACGUCAU | -2.72 ± 0.15 | -1.65 ± 0.14
GAACAGCAAUAUUACGGCCA | -0.58 ± 0.18 | -0.441 ± 0.22
UGCAAGCAAUAUUACGUCUA | -0.304 ± 0.047 | 0.371 ± 0.062
ACGCAGCAAUAUUACGCUCA | -0.563 ± 0.063 | 0.124 ± 0.088
UGAAAGCAAUAUUACGUUUG | -2.94 ± 0.13 | -0.682 ± 0.11
AUAAAGCAAUAUUACGGGGU | -2.63 ± 0.16 | -1.99 ± 0.14
CCGAAGCAAUAUUACGGACU | -2.33 ± 0.32 | -2.2 ± 0.34
UGUCAGCAAUAUUACGGUGU | -2.06 ± 0.084 | -1.13 ± 0.1
GCACAGCAAUAUUACGUGGC | -4.03 ± 0.18 | -2.74 ± 0.15
GGCGAGCAAUAUUACGAUUU | -1.09 ± 0.092 | -0.569 ± 0.12
GCACAGCAAUAUUACGUCAC | -3.68 ± 0.26 | -2.42 ± 0.32
ACGUAGCAAUAUUACGAGAC | -2.37 ± 0.3 | –
AGUAAGCAAUAUUACGAUCC | -0.71 ± 0.097 | 0.236 ± 0.15
GAAGAGCAAUAUUACGGUGC | – | -2.41 ± 0.21
GAACAGCAAUAUUACGCUAA | -1.13 ± 0.062 | -0.958 ± 0.075
GCCAAGCAAUAUUACGUUAU | -2.76 ± 0.14 | -0.784 ± 0.1
AAAGAGCAAUAUUACGCAGU | -3.46 ± 0.2 | -1.71 ± 0.17
GCGGAGCAAUAUUACGCAUG | – | -2.8 ± 0.44
ACGGAGCAAUAUUACGCAAG | -3.14 ± 0.27 | -1.79 ± 0.26
GUAGAGCAAUAUUACGGCAC | -0.941 ± 0.4 | –
GGUGAGCAAUAUUACGGAGG | -1.6 ± 0.27 | –
